The supplement of paper PMC10065799, “High-throughput profiling of sequence recognition by tyrosine kinases and SH2 domains using bacterial peptide display” (eLife, 2023)

Tested on: Fer (mouse)
Assay: phosphorylation enrichment, bacterial display (enrichment ratio); higher = better substrate or ligand; peptides without Tyr show the background
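Note: 11-residue human phosphosite peptides and single-mutation variants displayed on the E. coli surface, counted by deep sequencing, each peptide's frequency after selection divided by its frequency in the unselected input library; frequency after pTyr selection over input frequency; kinase dosed for 20-30% of maximal phosphorylation in three min.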

In order of rising phosphorylation enrichment:
1. FRVAGYKTQGG [TIA1_Y383_E384K_YF]  0.273
2. TPGPNYRPGYN [USH2A_Y463]  0.294
3. AASHRYDLGGL [QPRT_Y162]  0.336
4. SHSMKYFDTAV [HLA-C_Y31_R30K]  0.357
5. VKPHRYRPGTV [H3-5_Y41]  0.362
6. TNFPLYLRSLE [MTM1_Y71_R69P_YF]  0.401
7. GDPTEYFITAI [IGSF22_Y501_S503I_YF]  0.404
8. FCVVRYCWLRR [MPZ_Y181_Y177C]  0.404
9. KVGNEYVNKGQ [MYH7_Y410_T412N]  0.404
10. ARLEFYENEKK [IRS1_Y47_YF]  0.406
11. YGGLRYGYGGL [KRTAP20-2_Y13_V17G]  0.407
12. DGYIDYAEFAK [MCFD2_Y138]  0.407
13. DLDLTYIYPNI [PTEN_Y27]  0.424
14. EKKKYYDAKIE [CASP5_Y104_T106A]  0.475
15. FLNSIYKCRDE [ROS1_Y2227_S2229C]  0.477
16. ELAVNYQEQAS [SLC9A9_Y591_I589V]  0.519
17. NQSVRYDSSLK [ABCC8_Y1353_L1349Q]  0.57
18. SAGSSYSISVI [PAX5_Y179_G183V]  0.572
19. TDHLQYFDSNK [ARAP1_Y359_R358Q]  0.654
20. QNTGDDFDLFG [PTPN11_Y62_Y62D_YF]  0.7
21. RLAKTYETTLE [ALB_Y377]  0.721
22. VEEDTYTMPST [PTK2_Y407_D402V]  0.741
23. RREWYYEVIIA [BACE1_Y260_V265A]  0.764
24. IGEVVYQRAAM [GRIN2A_Y502_V506A]  0.78
25. TISPYYCQSLF [CRYAA_Y48_R49C]  0.939
26. CTTIHYDFMCN [TP53_Y234_N235D_YF]  1.05
27. LTFDEYRNISQ [ANXA3_Y216]  1.08
28. PEVSGYCHYAD [TG_Y234_C237Y]  1.1
29. HFVDEYDPTME [KRAS_Y32_I36M]  1.11
30. VTAALYGRLYE [BTD_Y536]  1.31
31. DDFDLYGGEKF [PTPN11_Y66_Y62D_YF]  1.72
32. LPEENYQVLRF [ARHGAP1_Y365]  2.13
33. ACEVLYNIVFM [NCF2_Y125_A128V]  8.66

Biological target: EPHB2 (UniProt P29323)
Assay: as above

Sequence of EPHB2 (P29323 whole entry, looked up): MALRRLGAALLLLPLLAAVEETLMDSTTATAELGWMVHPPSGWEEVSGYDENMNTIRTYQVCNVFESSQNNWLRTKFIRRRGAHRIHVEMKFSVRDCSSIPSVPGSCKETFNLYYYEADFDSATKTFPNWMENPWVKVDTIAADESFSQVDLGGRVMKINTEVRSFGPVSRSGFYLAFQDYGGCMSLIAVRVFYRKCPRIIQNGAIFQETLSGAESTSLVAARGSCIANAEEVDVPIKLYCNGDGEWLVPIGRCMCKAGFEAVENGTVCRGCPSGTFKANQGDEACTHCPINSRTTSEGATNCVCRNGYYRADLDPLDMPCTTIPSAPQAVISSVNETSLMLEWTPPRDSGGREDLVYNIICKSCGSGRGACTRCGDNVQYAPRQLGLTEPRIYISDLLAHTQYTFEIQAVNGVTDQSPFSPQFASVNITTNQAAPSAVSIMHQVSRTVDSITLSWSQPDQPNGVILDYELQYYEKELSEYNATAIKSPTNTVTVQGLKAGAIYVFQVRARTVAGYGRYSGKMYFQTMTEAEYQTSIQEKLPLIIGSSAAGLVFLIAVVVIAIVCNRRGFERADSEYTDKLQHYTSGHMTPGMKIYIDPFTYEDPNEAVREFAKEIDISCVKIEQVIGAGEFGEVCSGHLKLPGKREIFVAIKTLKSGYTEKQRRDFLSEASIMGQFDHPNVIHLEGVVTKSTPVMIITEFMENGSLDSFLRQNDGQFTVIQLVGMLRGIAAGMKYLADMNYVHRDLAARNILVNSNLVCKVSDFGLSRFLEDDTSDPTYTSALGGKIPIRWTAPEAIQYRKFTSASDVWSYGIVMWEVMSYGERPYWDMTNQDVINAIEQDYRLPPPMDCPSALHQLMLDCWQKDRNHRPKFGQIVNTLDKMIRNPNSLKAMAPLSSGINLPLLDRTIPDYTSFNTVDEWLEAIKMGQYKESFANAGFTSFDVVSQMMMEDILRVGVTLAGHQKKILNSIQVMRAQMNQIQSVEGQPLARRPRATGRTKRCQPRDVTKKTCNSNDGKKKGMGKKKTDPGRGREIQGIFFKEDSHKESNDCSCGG

In order of falling phosphorylation enrichment:
1. VTAALYGRLYE [BTD_Y536]  1.43
2. LPEENYQVLRF [ARHGAP1_Y365]  1.41
3. ACEVLYNIVFM [NCF2_Y125_A128V]  1.16
4. QNTGDDFDLFG [PTPN11_Y62_Y62D_YF]  1.02
5. DLDLTYIYPNI [PTEN_Y27]  0.961
6. RLAKTYETTLE [ALB_Y377]  0.855
7. LTFDEYRNISQ [ANXA3_Y216]  0.782
8. SAGSSYSISVI [PAX5_Y179_G183V]  0.712
9. ELAVNYQEQAS [SLC9A9_Y591_I589V]  0.694
10. VEEDTYTMPST [PTK2_Y407_D402V]  0.675
11. DDFDLYGGEKF [PTPN11_Y66_Y62D_YF]  0.659
12. TDHLQYFDSNK [ARAP1_Y359_R358Q]  0.651
13. GDPTEYFITAI [IGSF22_Y501_S503I_YF]  0.644
14. PEVSGYCHYAD [TG_Y234_C237Y]  0.616
15. FCVVRYCWLRR [MPZ_Y181_Y177C]  0.603
16. ARLEFYENEKK [IRS1_Y47_YF]  0.597
17. DGYIDYAEFAK [MCFD2_Y138]  0.579
18. KVGNEYVNKGQ [MYH7_Y410_T412N]  0.553
19. TISPYYCQSLF [CRYAA_Y48_R49C]  0.543
20. TPGPNYRPGYN [USH2A_Y463]  0.542
21. FLNSIYKCRDE [ROS1_Y2227_S2229C]  0.514
22. CTTIHYDFMCN [TP53_Y234_N235D_YF]  0.514
23. TNFPLYLRSLE [MTM1_Y71_R69P_YF]  0.51
24. NQSVRYDSSLK [ABCC8_Y1353_L1349Q]  0.491
25. FRVAGYKTQGG [TIA1_Y383_E384K_YF]  0.468
26. RREWYYEVIIA [BACE1_Y260_V265A]  0.442
27. HFVDEYDPTME [KRAS_Y32_I36M]  0.437
28. YGGLRYGYGGL [KRTAP20-2_Y13_V17G]  0.427
29. IGEVVYQRAAM [GRIN2A_Y502_V506A]  0.425
30. SHSMKYFDTAV [HLA-C_Y31_R30K]  0.389
31. AASHRYDLGGL [QPRT_Y162]  0.375
32. VKPHRYRPGTV [H3-5_Y41]  0.337
33. EKKKYYDAKIE [CASP5_Y104_T106A]  0.326
